T1: human RAP1RCT (RAP1 C-terminal RCT domain, residues 303-399) (human, UniProt Q9NYB0 303-399)
T1 sequence (looked up): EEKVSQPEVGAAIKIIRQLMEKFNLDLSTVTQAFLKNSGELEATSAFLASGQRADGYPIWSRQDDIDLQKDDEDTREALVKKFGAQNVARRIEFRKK

T2: S. pombe SpRap1RCT (SpRap1 residues 639-693) (S. pombe, UniProt Q96TL7 639-693)
T2 sequence (looked up): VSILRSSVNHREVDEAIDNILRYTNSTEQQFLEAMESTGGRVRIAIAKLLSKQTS

T3: SpRap1RCT V651R (S. pombe, UniProt Q96TL7 639-693, V651R)
T3 sequence (looked up): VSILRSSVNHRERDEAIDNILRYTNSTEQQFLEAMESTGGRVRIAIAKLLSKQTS

T4: S. cerevisiae ScRap1RCT (ScRap1 residues 679-827) (S. cerevisiae, UniProt P11938 679-827)
T4 sequence (looked up): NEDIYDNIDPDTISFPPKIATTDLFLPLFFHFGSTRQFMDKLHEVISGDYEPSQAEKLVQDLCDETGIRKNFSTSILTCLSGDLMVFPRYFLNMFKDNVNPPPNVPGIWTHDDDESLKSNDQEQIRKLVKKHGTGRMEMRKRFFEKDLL


Columns and labels:
Assay in all cases: ITC
[1] = molecular target: T1, human RAP1RCT (RAP1 C-terminal RCT …)
[2] = molecular target: T2, S. pombe SpRap1RCT (SpRap1 residues …)
[3] = molecular target: T3, SpRap1RCT V651R
[4] = molecular target: T4, S. cerevisiae ScRap1RCT (ScRap1 …)

Binder	Kd [1]	binding result [2]	further results
LSVKGMLYDSDSQQILNRLRERVSGSTAQSAD (domain or fragment, UniProt P79005 365-396, looked up) [S. pombe Taz1RBM (Taz1 residues 365-396)]	–	–	Kd [2]: 2000 nM; binding result [3]: binds
LSVKGMLYDSDSQQIRNRLRERVSGSTAQSAD (domain or fragment, S. pombe, UniProt P79005 365-396, looked up) [Taz1RBM L380R]	–	binds	–
LSVKGMLYDSDSQQILNRLRERRSGSTAQSAD (domain or fragment, S. pombe, UniProt P79005 365-396, looked up) [Taz1RBM V387R]	–	binds	–
EKGNAKMIDFATLSKLKKKYQIILDR (peptide, UniProt P06701 456-481, looked up) [S. cerevisiae Sir3RBM (Sir3 residues 456-481)]	–	–	Kd [4]: ~1800 nM

The next lines start with results.

Kd [1]	binding result [2]	Binder	further results
16.5 nM	–	QLRNPPTTIGMMTLKAAFKTLSGAQDSEAAFAKLDQKDLVLP (domain or fragment) [human TRF2RBM (RAP1-binding motif, TRF2 residues 275-316)]	–
23.9 nM	–	full-length TRF2 protein (natural protein) MAGGGGSSDGSGRAAGRRASRSSGRARRGRHEPGLGGPAERGAGEARLEEAVNRWVLKFYFHEALRAFRGSRYGDFRQIRDIMQALLVRPLGKEHTVSRLLRVMQCLSRIEEGENLDCSFDMEAELTPLESAINVLEMIKTEFTLTEAVVESSRKLVKEAAVIICIKNKEFEKASKILKKHMSKDPTTQKLRNDLLNIIREKNLAHPVIQNFSYETFQQKMLRFLESHLDDAEPYLLTMAKKALKSESAASSTGKEDKQPAPGPVEKPPREPARQLRNPPTTIGMMTLKAAFKTLSGAQDSEAAFAKLDQKDLVLPTQALPASPALKNKRPRKDENESSAPADGEGGSELQPKNKRMTISRLVLEEDSQSTEPSAGLNSSQEAASAPPSKPTVLNQPLPGEKNPKVPKGKWNSSNGVEEKETWVEEDELFQVQAAPDEDSTTNITKKQKWTVEESEWVKAGVQKYGEGNWAAISKNYPFVNRTAVMIKDRWRTMKRLGMN	–
